Laboratory results published in patent publication US20230002728A1, “STEM CELL FATE ENGINEERING METHODS” (Wisconsin Alumni Research Foundation, priority 2021, published 2023).

What was measured:
Format in all cases: cell-based, human
H9 hESCs [1] = assay: ALK inhibitor test on BMP4 patterns (BRA immunostaining, day 2); conditions: 1 μM A83-01, 10 μM SB-431542 or 2 μM LDN-212854 added for the initial 24 h
Protocol: For localized mesendoderm differentiation, 2-2.5 ng/μl BMP4 solution was placed with various patterns on different substrates. For glass surfaces, 1.5 ng/μl BMP4 solution was used. 5 ng/μl noggin solution was placed as a droplet to show an inhibitory effect of noggin on BMP4-induced mesendoderm differentiation. After washing, substrate was coated with Matrigel® for 2 hours as described above. Glass was coated with Matrigel® overnight. 0.025 mg/ml Synthemax (Corning, 3535) (final concentration, diluted in water) was added to a washed TC-treated plate and the plate was incubated for 2 hours at room temperature prior to cell seeding. 5 μg/ml truncated recombinant human vitronectin (Gibco, A14700) diluted in PBS was added to a washed TC-treated plate and the plate was incubated for 1 hour at room temperature prior to cell seeding. After ECM coating, the ECM solution was aspirated and hPSCs were singularized using Accutase (10 min incubation at 37° C.), resuspended in mTeSR1 supplemented with 5 μM Y-27632, and seeded at 5×10^5 to about 1×10^6 cells/cm^2 on coated substrates (day 0). […]
(§1) For immunostaining of other protein markers, cells were fixed in 4% paraformaldehyde (Electron Microscopy Sciences, 15710-S) in PBS for 15 min at room temperature, washed with PBS three times, and incubated in diluted primary antibodies in 5% nonfat dry milk (Santa Cruz Biotechnology, sc-2324)/0.4% Triton X-100 (Fisher Scientific, BP151-500) PBS overnight at 4° C. […] After secondary antibody staining, the cells were washed with PBS three times, incubated in 2 μg/ml Hoechst 33342 diluted in PBS for 5 min at room temperature, washed with PBS two times, and analyzed under the fluorescence microscope.
Next, BMP4 solution was placed on TC-treated plates in various patterns (droplet, letters, circle, heart, and star), and hPSCs seeded onto the substrate in mTeSR1 maintenance medium. […] Since the presence of inhibitory morphogens is also important in developmental patterning, a BMP inhibitor, noggin, was evaluated for antagonism to localized BMP4-induced mesendoderm differentiation. […]

[2] = system: H9 hESC-derived cardiac progenitor cells (CPCs); assay: Localized EpiC differentiation of hPSC-derived cardiac progenitors on morphogen droplets (WT1 immunostaining); conditions: droplets on TC-coated PS plate, 7d after cardiac progenitor seeding
Protocol: For localized EpiC differentiation, BMP4 (2 ng/μl)+Wnt3a (40 ng/μl) solution was placed in PDMS stencil masks either on a TC-treated plate or an ibidi 35 mm polymer dish. Matrigel® coating was performed as described above. Cryopreserved CPCs were thawed and seeded at 500,000-550,000 cells/cm^2 in LaSR medium (advanced DMEM/F12 (Gibco, 12634-010) supplemented with 60 μg/ml ascorbic acid (Sigma, A8960) and 2.5 mM Glutamax (Gibco, 35050-061)) supplemented with 5 μM Y-27632). Medium was changed daily with fresh LaSR medium until analysis. Time lapse imaging of CPCs derived from H9-hTNNT2-GFP hESC during localized EpiC differentiation was performed using a fluorescence microscope equipped with a heating stage top incubator. 18 days after CPC seeding, cells cultured on an ibidi polymer dish were immunostained and imaged using a confocal microscope (Nikon, A1R-SI+) for the analysis of sarcomere structure.
Spatial organization of cell fate commitment is important throughout development. […] These cardiac progenitors can further differentiate into CMs without any specific external signaling factors and can also differentiate into EpiCs upon activation of canonical Wnt signaling (Bao et al. (2016) Nature biomed. Eng. 1, 1-12).

H9 hESCs [3] = assay: Noggin droplet pattern, inhibitory effect on BMP4-induced mesendoderm differentiation (BRA immunostaining); conditions: 5 ng/μl noggin droplet on TC-treated PS; mTeSR1 with 10 ng/ml BMP4, 2 days
Protocol: For localized mesendoderm differentiation, 2-2.5 ng/μl BMP4 solution was placed with various patterns on different substrates. For glass surfaces, 1.5 ng/μl BMP4 solution was used. 5 ng/μl noggin solution was placed as a droplet to show an inhibitory effect of noggin on BMP4-induced mesendoderm differentiation. After washing, substrate was coated with Matrigel® for 2 hours as described above. Glass was coated with Matrigel® overnight. 0.025 mg/ml Synthemax (Corning, 3535) (final concentration, diluted in water) was added to a washed TC-treated plate and the plate was incubated for 2 hours at room temperature prior to cell seeding. […]
as §1, with “microscope. […]” for “microscope.”

H9 hESCs [4] = assay: Localized definitive endoderm differentiation of hPSCs on adsorbed activin A patterns (SOX17/FOXA2 immunostaining)
Protocol: For immunostaining of other protein markers, cells were fixed in 4% paraformaldehyde (Electron Microscopy Sciences, 15710-S) in PBS for 15 min at room temperature, washed with PBS three times, and incubated in diluted primary antibodies in 5% nonfat dry milk (Santa Cruz Biotechnology, sc-2324)/0.4% Triton X-100 (Fisher Scientific, BP151-500) PBS overnight at 4° C. Then, the cells were washed with PBS three times and incubated in diluted secondary antibody in 5% nonfat dry milk/0.4% Triton X-100 PBS for 30 min at room temperature. After secondary antibody staining, the cells were washed with PBS three times, incubated in 2 μg/ml Hoechst 33342 diluted in PBS for 5 min at room temperature, washed with PBS two times, and analyzed under the fluorescence microscope.
For localized definitive endoderm differentiation, 25 ng/μl activin A solution was placed with various patterns on a TC-treated plate. Matrigel® coating and hPSC seeding was performed as the same way described above. Medium was changed daily with RPMI1640 medium supplemented with 2% FBS. For the ALK inhibitor test, 1 μM A83-01 (Tocris, 2939), 10 μM SB-431542 (Tocris, 1614), or 2 μM LDN-212854 (Tocris, 6151) was added to mTeSR1 at day 0. […]

For `c1cc(-c2cnn3cc(-c4ccc(N5CCNCC5)cc4)cnc23)c2cccnc2c1` [LDN-212854], the “BRA expression in cells on the BMP4-patterned area” value (“BRA expression in cells” below) (H9 hESCs [1]) was “suppressed BRA expression”.

For `NC(=O)c1ccc(-c2nc(-c3ccc4c(c3)OCO4)c(-c3ccccn3)[nH]2)cc1` [SB431542], the “BRA expression in cells” value (H9 hESCs [1]) was “suppressed BRA expression”.

For `Cc1cccc(-c2nn(C(=S)Nc3ccccc3)cc2-c2ccnc3ccccc23)n1` [A83-01], the “BRA expression in cells” value (H9 hESCs [1]) was “suppressed BRA expression”.

B1: Wnt3a: human recombinant Wnt3a (R&D Systems, 5036-WN-010), morphogen (protein, UniProt P56704 19-352, looked up)
Protein Wnt-3a: SYPIWWSLAVGPQYSSLGSQPILCASIPGLVPKQLRFCRNYVEIMPSVAEGIKIGIQECQHQFRGRRWNCTTVHDSLAIFGPVLDKATRESAFVHAIASAGVAFAVTRSCAEGTAAICGCSSRHQGSPGKGWKWGGCSEDIEFGGMVSREFADARENRPDARSAMNRHNNEAGRQAIASHMHLKCKCHGLSGSCEVKTCWWSQPDFRAIGDFLKDKYDSASEMVVEKHRESRGWVETLRPRYTYFKVPTERDLVYYEASPNFCEPNPETGSFGTRDRTCNVSSHGIDGCDLLCCGRGHNARAERRREKCRCVFHWCCYVSCQECTRVYDVHTCK
B1 was tested, and the “EpiC differentiation (WT1 expression)” value [2] was “limited if any EpiC differentiation”.

B2: noggin: human recombinant noggin (R&D Systems, 6057-NG-025), a BMP inhibitor (protein, UniProt Q13253 28-232, looked up)
Noggin: QHYLHIRPAPSDNLPLVDLIEHPDPIFDPKEKDLNETLLRSLLGGHYDPGFMATSPPEDRPGGGGGAAGGAEDLAELDQLLRQRPSGAMPSEIKGLEFSEGLAQGKKQRLSKKLRRKLQMWLWSQTFCPVLYAWNDLGSRFWPRYVKVGSCFSKRSCSVPEGMVCKPSKSVHLTVLRWRCQRRGGQRCGWIPIQYPIISECKCSC
B2 was tested, and the “effect on BMP4-induced mesendoderm differentiation (BRA expression)” value (H9 hESCs [3]) was “inhibited BMP4-induced mesendoderm differentiation”.

B3: activin A: human recombinant activin A (R&D Systems, 338-AC-010), morphogen (protein, UniProt P08476 311-426, looked up)
Inhibin beta A chain: GLECDGKVNICCKKQFFVSFKDIGWNDWIIAPSGYHANYCEGECPSHIAGTSGSSLSFHSTVINHYRMRGHSPFANLKSCCVPTKLRPMSMLYYDDGQNIIKKDIQNMIVEECGCS
B3 was tested, and the “endoderm differentiation (patterned SOX17 expression)” value (H9 hESCs [4]; 25 ng/μl activin A adsorbed on TC-treated plate, day 3) was “induced localized endoderm differentiation” and the “cells expressing SOX17 and FOXA2 on the patterned area” value (H9 hESCs [4]; day 5 of differentiation) was “almost all of the cells”.
